Measured values taken from PMC11137577, “Unusual OB-fold protein PrgE and its role in conjugation”.

T1: PrgE WT (Enterococcus faecalis (plasmid pCF10), UniProt D1LHE9 1-144)
T1 sequence: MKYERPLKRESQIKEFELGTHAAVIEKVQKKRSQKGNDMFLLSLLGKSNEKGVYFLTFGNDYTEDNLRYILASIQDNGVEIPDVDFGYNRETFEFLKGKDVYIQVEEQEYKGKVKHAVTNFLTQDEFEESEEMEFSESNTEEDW

B1: 60-mer ssDNA (ssDNA)
DNA: CAGTGACAGTCTCCACGGTGAAGCAGTCGTACCTCTTGACGCATGAATAGATATATGTTA
B2: 30-mer dsDNA (dsDNA)
DNA 1: CAGTGACAGTCTCCACGGTGAAGCAGTCGT
DNA 2: ACGACTGCTTCACCGTGGAGACTGTCACTG
B3: 60-mer dsDNA (dsDNA)
DNA 1: CAGTGACAGTCTCCACGGTGAAGCAGTCGTACCTCTTGACGCATGAATAGATATATGTTA
DNA 2: TAACATATATCTATTCATGCGTCAAGAGGTACGACTGCTTCACCGTGGAGACTGTCACTG
B4: Poly-A 60-mer (ssDNA)
DNA: AAAAAAAAAAAAAAAAAAAAAAAAAAAAAAAAAAAAAAAAAAAAAAAAAAAAAAAAAAAA

How the values were obtained:
[1] = target: PrgE (Enterococcus faecalis (plasmid pCF10)); experiment: SEC-MALS; 60 μM PrgE, Superdex 200 Increase 10/300 GL, 20 mM Hepes pH 7.5, 300 mM NaCl
PrgE WT [2] = target: T1, PrgE WT; experiment: fluorescence anisotropy; 100 mM NaCl; 20 mM Hepes pH 7.5, 50 or 100 mM NaCl, 10 nM FITC-DNA, 0-20 uM protein, 30 min at RT; conditions: protein: recombinant, tags: C-terminal 10xHis removed with 3C (PreScission) protease, chain copies: 3
ΔN-PrgE = ΔN-PrgE (Enterococcus faecalis (plasmid pCF10), UniProt D1LHE9 13-144, del1-12); experiment: fluorescence anisotropy; 50 mM NaCl; 20 mM Hepes pH 7.5, 50 or 100 mM NaCl, 10 nM FITC-DNA, 0-20 uM protein, 30 min at RT; conditions: protein: recombinant, tags: C-terminal 10xHis removed with 3C (PreScission) protease
PrgE WT [3] = target: T1, PrgE WT; experiment: as above; conditions: protein: recombinant, tags: C-terminal 10xHis removed with 3C (PreScission) protease, chain copies: 3
PrgE WT [4] = target: T1, PrgE WT; experiment: fluorescence anisotropy; 50 mM NaCl; quadratic fit (Hill coefficient ca 1.5 in Hill fit); 20 mM Hepes pH 7.5, 50 or 100 mM NaCl, 10 nM FITC-DNA, 0-20 uM protein, 30 min at RT; conditions: protein: recombinant; tags: C-terminal 10xHis removed with 3C (PreScission) protease; chain copies: 3; label: 5' FITC; single strand
PrgE WT [5] = target: T1, PrgE WT; experiment: X-ray crystal structure; 15% PEG 400, 50 mM MES pH 6.5, 80 mM Mg acetate, 15 mM MgCl2; 5 nt per subunit; 20 mM Hepes pH 7.5, 50 or 100 mM NaCl, 10 nM FITC-DNA, 0-20 uM protein, 30 min at RT; conditions: protein: recombinant; tags: C-terminal 10xHis removed with 3C (PreScission) protease; chain copies: 3; single strand
[6] = label: 5' FITC on strand 1, blunt

Molecule | Kd (PrgE WT [2]; label: 5' FITC, single strand) [nM] | Kd (ΔN-PrgE; label: 5' FITC, single strand) [nM] | Kd (PrgE WT [2]; [6]) [nM] | Kd (ΔN-PrgE; [6]) [nM] | Kd (PrgE WT [3]; [6]) [nM] | also measured
PrgE (natural protein) |  |  |  |  |  | stoichiometry N [1]: 3
CAGTGACAGTCTCCACGGTGAAGCAGTCGT (ssDNA) [30-mer ssDNA] | 1840 ± 150 | 3850 ± 490 |  |  |  | Kd (PrgE WT [3]; label: 5' FITC, single strand): 1020 ± 20 nM
B1 | 370 ± 10 | 4490 ± 480 |  |  |  | Kd (PrgE WT [4]): 330 ± 20 nM
B2 |  |  | 3360 ± 280 | 4390 ± 240 | 1960 ± 260 | 
B3 |  |  | 950 ± 30 | 5560 ± 190 | 500 ± 140 | 
B4 |  |  |  |  |  | binding result (PrgE WT [5]): binds
